Measurements reported in patent US20230242902A1, “A HIGHLY ERROR-PRONE […] R[…] FOR TARGETED CONTINUOUS EVOLUTION IN VIVO” (The Regents of the University of California, priority 2017, published 2023).

B1: R692K: TP-DNAP1 variant (protein)
chain: MDYKDKALNDLRNVYADFDSLPLDFRQILIKDRATLLQKEDVEKKILERQEDAKKYAEYLKQSEIPERISLPNIKRHKGVSISFEETSEDMVLEPRPFIFDGLNIRCFRRETIFSLKNKILNMVKESSSFKNVSRQSVSFMYFKIFNKGKVIASTKSVNIYEDKIDERLEDLCNNFDDVLKKIIDVTYGYESLFVSETYSYVIFYAKSIYFPQPRCVNNWGNNIPNILTFDSFKLFTANKNNVSCIKQCSRFLWQKDFNTLEEMIEYKNGNICIVTPQLHINDVRDIKSFNDIRLYSESPIKTFSVIDNTITYLFYFKEHLGVIFNITKSRHDRRVTKFSPLSKFSDVKNITVCFDIESYFDPEKESNQVNIPFICCASIIYNKVIGNIVDFEGRDCVAQMIEYVVDICGELNISSVELIAHNGGGYDFHYILSSMYNPAAIKNILIRNNSFISFNFAHDGVKFSVKDSYSFLLCSLANASKAFLNEETFKKTDFPHHDLKTADDLYKVYKEWSSVNTEINHVVEKEKLLITSEHIVNFTKNDKSKTLIEWSKDYCRNDVLVLSKVWLEFKNAVEDIFNCELVDQTMTLAGLSYKLFQANMPFDVELRHPNKEDYFNMREALIGGRCISVNGIYKDVLCLDVKSLYPASMAFYDQPYGSFKRVSSRPKDELGIYYVRVTPNRNNKSNFFPIKSHNKITYNNFEESTYIAWYTNVDIDIGLSEGHNIEYIPFDSYGNIGYSWSKKGKIFEKYIKDVLYKLKIKYEKQNNKVKRNVIKIIMNSLWGKFAQKWVNFEYFIKSEDDIDFESEEAYKIWDTDFMLIKKIKESTYSSKPIQNGVFTLSWARYHMKSIWDAGAKEGAECIYSDTDSIFVHKEHFKKNAKFMLNGLKVPIIGSEVGQLELECEFDKLLCAGKKQYMGFYTYFQDGKPCIKEKKRFKGIPSNYIIPELYAHLLSGADKEAKIQFLKFRREWGSVKGYIENKTVKAT
B2: R692V: TP-DNAP1 variant (protein)
chain: MDYKDKALNDLRNVYADFDSLPLDFRQILIKDRATLLQKEDVEKKILERQEDAKKYAEYLKQSEIPERISLPNIKRHKGVSISFEETSEDMVLEPRPFIFDGLNIRCFRRETIFSLKNKILNMVKESSSFKNVSRQSVSFMYFKIFNKGKVIASTKSVNIYEDKIDERLEDLCNNFDDVLKKIIDVTYGYESLFVSETYSYVIFYAKSIYFPQPRCVNNWGNNIPNILTFDSFKLFTANKNNVSCIKQCSRFLWQKDFNTLEEMIEYKNGNICIVTPQLHINDVRDIKSFNDIRLYSESPIKTFSVIDNTITYLFYFKEHLGVIFNITKSRHDRRVTKFSPLSKFSDVKNITVCFDIESYFDPEKESNQVNIPFICCASIIYNKVIGNIVDFEGRDCVAQMIEYVVDICGELNISSVELIAHNGGGYDFHYILSSMYNPAAIKNILIRNNSFISFNFAHDGVKFSVKDSYSFLLCSLANASKAFLNEETFKKTDFPHHDLKTADDLYKVYKEWSSVNTEINHVVEKEKLLITSEHIVNFTKNDKSKTLIEWSKDYCRNDVLVLSKVWLEFKNAVEDIFNCELVDQTMTLAGLSYKLFQANMPFDVELRHPNKEDYFNMREALIGGRCISVNGIYKDVLCLDVKSLYPASMAFYDQPYGSFKRVSSRPKDELGIYYVRVTPNRNNKSNFFPIVSHNKITYNNFEESTYIAWYTNVDIDIGLSEGHNIEYIPFDSYGNIGYSWSKKGKIFEKYIKDVLYKLKIKYEKQNNKVKRNVIKIIMNSLWGKFAQKWVNFEYFIKSEDDIDFESEEAYKIWDTDFMLIKKIKESTYSSKPIQNGVFTLSWARYHMKSIWDAGAKEGAECIYSDTDSIFVHKEHFKKNAKFMLNGLKVPIIGSEVGQLELECEFDKLLCAGKKQYMGFYTYFQDGKPCIKEKKRFKGIPSNYIIPELYAHLLSGADKEAKIQFLKFRREWGSVKGYIENKTVKAT
B3: E298R: TP-DNAP1 variant (protein)
chain: MDYKDKALNDLRNVYADFDSLPLDFRQILIKDRATLLQKEDVEKKILERQEDAKKYAEYLKQSEIPERISLPNIKRHKGVSISFEETSEDMVLEPRPFIFDGLNIRCFRRETIFSLKNKILNMVKESSSFKNVSRQSVSFMYFKIFNKGKVIASTKSVNIYEDKIDERLEDLCNNFDDVLKKIIDVTYGYESLFVSETYSYVIFYAKSIYFPQPRCVNNWGNNIPNILTFDSFKLFTANKNNVSCIKQCSRFLWQKDFNTLEEMIEYKNGNICIVTPQLHINDVRDIKSFNDIRLYSRSPIKTFSVIDNTITYLFYFKEHLGVIFNITKSRHDRRVTKFSPLSKFSDVKNITVCFDIESYFDPEKESNQVNIPFICCASIIYNKVIGNIVDFEGRDCVAQMIEYVVDICGELNISSVELIAHNGGGYDFHYILSSMYNPAAIKNILIRNNSFISFNFAHDGVKFSVKDSYSFLLCSLANASKAFLNEETFKKTDFPHHDLKTADDLYKVYKEWSSVNTEINHVVEKEKLLITSEHIVNFTKNDKSKTLIEWSKDYCRNDVLVLSKVWLEFKNAVEDIFNCELVDQTMTLAGLSYKLFQANMPFDVELRHPNKEDYFNMREALIGGRCISVNGIYKDVLCLDVKSLYPASMAFYDQPYGSFKRVSSRPKDELGIYYVRVTPNRNNKSNFFPIRSHNKITYNNFEESTYIAWYTNVDIDIGLSEGHNIEYIPFDSYGNIGYSWSKKGKIFEKYIKDVLYKLKIKYEKQNNKVKRNVIKIIMNSLWGKFAQKWVNFEYFIKSEDDIDFESEEAYKIWDTDFMLIKKIKESTYSSKPIQNGVFTLSWARYHMKSIWDAGAKEGAECIYSDTDSIFVHKEHFKKNAKFMLNGLKVPIIGSEVGQLELECEFDKLLCAGKKQYMGFYTYFQDGKPCIKEKKRFKGIPSNYIIPELYAHLLSGADKEAKIQFLKFRREWGSVKGYIENKTVKAT
B4: R692W: TP-DNAP1 variant (protein)
chain: MDYKDKALNDLRNVYADFDSLPLDFRQILIKDRATLLQKEDVEKKILERQEDAKKYAEYLKQSEIPERISLPNIKRHKGVSISFEETSEDMVLEPRPFIFDGLNIRCFRRETIFSLKNKILNMVKESSSFKNVSRQSVSFMYFKIFNKGKVIASTKSVNIYEDKIDERLEDLCNNFDDVLKKIIDVTYGYESLFVSETYSYVIFYAKSIYFPQPRCVNNWGNNIPNILTFDSFKLFTANKNNVSCIKQCSRFLWQKDFNTLEEMIEYKNGNICIVTPQLHINDVRDIKSFNDIRLYSESPIKTFSVIDNTITYLFYFKEHLGVIFNITKSRHDRRVTKFSPLSKFSDVKNITVCFDIESYFDPEKESNQVNIPFICCASIIYNKVIGNIVDFEGRDCVAQMIEYVVDICGELNISSVELIAHNGGGYDFHYILSSMYNPAAIKNILIRNNSFISFNFAHDGVKFSVKDSYSFLLCSLANASKAFLNEETFKKTDFPHHDLKTADDLYKVYKEWSSVNTEINHVVEKEKLLITSEHIVNFTKNDKSKTLIEWSKDYCRNDVLVLSKVWLEFKNAVEDIFNCELVDQTMTLAGLSYKLFQANMPFDVELRHPNKEDYFNMREALIGGRCISVNGIYKDVLCLDVKSLYPASMAFYDQPYGSFKRVSSRPKDELGIYYVRVTPNRNNKSNFFPIWSHNKITYNNFEESTYIAWYTNVDIDIGLSEGHNIEYIPFDSYGNIGYSWSKKGKIFEKYIKDVLYKLKIKYEKQNNKVKRNVIKIIMNSLWGKFAQKWVNFEYFIKSEDDIDFESEEAYKIWDTDFMLIKKIKESTYSSKPIQNGVFTLSWARYHMKSIWDAGAKEGAECIYSDTDSIFVHKEHFKKNAKFMLNGLKVPIIGSEVGQLELECEFDKLLCAGKKQYMGFYTYFQDGKPCIKEKKRFKGIPSNYIIPELYAHLLSGADKEAKIQFLKFRREWGSVKGYIENKTVKAT
B5: R692F, T706E: TP-DNAP1 variant (protein)
chain: MDYKDKALNDLRNVYADFDSLPLDFRQILIKDRATLLQKEDVEKKILERQEDAKKYAEYLKQSEIPERISLPNIKRHKGVSISFEETSEDMVLEPRPFIFDGLNIRCFRRETIFSLKNKILNMVKESSSFKNVSRQSVSFMYFKIFNKGKVIASTKSVNIYEDKIDERLEDLCNNFDDVLKKIIDVTYGYESLFVSETYSYVIFYAKSIYFPQPRCVNNWGNNIPNILTFDSFKLFTANKNNVSCIKQCSRFLWQKDFNTLEEMIEYKNGNICIVTPQLHINDVRDIKSFNDIRLYSESPIKTFSVIDNTITYLFYFKEHLGVIFNITKSRHDRRVTKFSPLSKFSDVKNITVCFDIESYFDPEKESNQVNIPFICCASIIYNKVIGNIVDFEGRDCVAQMIEYVVDICGELNISSVELIAHNGGGYDFHYILSSMYNPAAIKNILIRNNSFISFNFAHDGVKFSVKDSYSFLLCSLANASKAFLNEETFKKTDFPHHDLKTADDLYKVYKEWSSVNTEINHVVEKEKLLITSEHIVNFTKNDKSKTLIEWSKDYCRNDVLVLSKVWLEFKNAVEDIFNCELVDQTMTLAGLSYKLFQANMPFDVELRHPNKEDYFNMREALIGGRCISVNGIYKDVLCLDVKSLYPASMAFYDQPYGSFKRVSSRPKDELGIYYVRVTPNRNNKSNFFPIFSHNKITYNNFEESEYIAWYTNVDIDIGLSEGHNIEYIPFDSYGNIGYSWSKKGKIFEKYIKDVLYKLKIKYEKQNNKVKRNVIKIIMNSLWGKFAQKWVNFEYFIKSEDDIDFESEEAYKIWDTDFMLIKKIKESTYSSKPIQNGVFTLSWARYHMKSIWDAGAKEGAECIYSDTDSIFVHKEHFKKNAKFMLNGLKVPIIGSEVGQLELECEFDKLLCAGKKQYMGFYTYFQDGKPCIKEKKRFKGIPSNYIIPELYAHLLSGADKEAKIQFLKFRREWGSVKGYIENKTVKAT
B6: R692F: TP-DNAP1 variant (protein)
chain: MDYKDKALNDLRNVYADFDSLPLDFRQILIKDRATLLQKEDVEKKILERQEDAKKYAEYLKQSEIPERISLPNIKRHKGVSISFEETSEDMVLEPRPFIFDGLNIRCFRRETIFSLKNKILNMVKESSSFKNVSRQSVSFMYFKIFNKGKVIASTKSVNIYEDKIDERLEDLCNNFDDVLKKIIDVTYGYESLFVSETYSYVIFYAKSIYFPQPRCVNNWGNNIPNILTFDSFKLFTANKNNVSCIKQCSRFLWQKDFNTLEEMIEYKNGNICIVTPQLHINDVRDIKSFNDIRLYSESPIKTFSVIDNTITYLFYFKEHLGVIFNITKSRHDRRVTKFSPLSKFSDVKNITVCFDIESYFDPEKESNQVNIPFICCASIIYNKVIGNIVDFEGRDCVAQMIEYVVDICGELNISSVELIAHNGGGYDFHYILSSMYNPAAIKNILIRNNSFISFNFAHDGVKFSVKDSYSFLLCSLANASKAFLNEETFKKTDFPHHDLKTADDLYKVYKEWSSVNTEINHVVEKEKLLITSEHIVNFTKNDKSKTLIEWSKDYCRNDVLVLSKVWLEFKNAVEDIFNCELVDQTMTLAGLSYKLFQANMPFDVELRHPNKEDYFNMREALIGGRCISVNGIYKDVLCLDVKSLYPASMAFYDQPYGSFKRVSSRPKDELGIYYVRVTPNRNNKSNFFPIFSHNKITYNNFEESTYIAWYTNVDIDIGLSEGHNIEYIPFDSYGNIGYSWSKKGKIFEKYIKDVLYKLKIKYEKQNNKVKRNVIKIIMNSLWGKFAQKWVNFEYFIKSEDDIDFESEEAYKIWDTDFMLIKKIKESTYSSKPIQNGVFTLSWARYHMKSIWDAGAKEGAECIYSDTDSIFVHKEHFKKNAKFMLNGLKVPIIGSEVGQLELECEFDKLLCAGKKQYMGFYTYFQDGKPCIKEKKRFKGIPSNYIIPELYAHLLSGADKEAKIQFLKFRREWGSVKGYIENKTVKAT

test system: p1; experiment: p1 copy number by p1-encoded mKate2 fluorescence; type: cell-based, S. cerevisiae; conditions: OR-Y24, measured in triplicate
In short: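 Read-out is mKate2 fluorescence of saturated OR-Y24 cultures, measured by flow cytometry or by plate reader with OD600 normalization. Flow values were converted by a qPCR-derived linear calibration; plate values were scaled to a w.t. TP-DNAP1 control.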

Molecule	Mean fold-increase over w.t. (p1 copy number)
B1	1.88 fold
B2	2.29 fold
B3	2.6 fold
B4	1.97 fold
B5	1.89 fold
B6	2.6 fold
